Data as given in patent publication US20240327530A1 (ICHNOS SCIENCES, published 2024).

How the values were obtained:
[1] = target: T1, Recombinant cynomolgus monkey IL-1RAP-ECD(S21-E359)-avi-his protein (cynomolgus monkey, UniProt P59822 21-359 (rhesus entry)); assay: SPR
T1 construct: also called cyno IL-1RAP-ECD-Avi-His; recombinant cynomolgus monkey IL-1RAP-avi-his protein
T1 sequence: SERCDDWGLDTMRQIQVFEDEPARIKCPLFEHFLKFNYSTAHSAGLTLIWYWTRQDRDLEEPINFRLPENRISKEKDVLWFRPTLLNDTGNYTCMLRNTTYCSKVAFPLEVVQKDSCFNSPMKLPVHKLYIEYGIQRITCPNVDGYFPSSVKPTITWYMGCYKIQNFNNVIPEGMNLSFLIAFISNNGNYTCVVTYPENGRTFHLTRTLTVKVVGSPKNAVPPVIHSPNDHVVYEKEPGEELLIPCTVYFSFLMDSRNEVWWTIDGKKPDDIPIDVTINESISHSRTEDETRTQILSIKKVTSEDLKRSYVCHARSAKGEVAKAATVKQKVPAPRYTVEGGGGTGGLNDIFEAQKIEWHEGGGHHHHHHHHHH

[2] = target: T2, Mouse IL-1RAP, membrane-bound on NIH-3T3 cells (mouse, UniProt Q61730 21-570); assay: flow cytometry on NIH-3T3 cells, PE-Cyanine7 secondary antibody, relative mean fluorescence intensity (isotype subtracted); lower of two curves
T2 construct: Endogenous protein on cells
T2 sequence (looked up): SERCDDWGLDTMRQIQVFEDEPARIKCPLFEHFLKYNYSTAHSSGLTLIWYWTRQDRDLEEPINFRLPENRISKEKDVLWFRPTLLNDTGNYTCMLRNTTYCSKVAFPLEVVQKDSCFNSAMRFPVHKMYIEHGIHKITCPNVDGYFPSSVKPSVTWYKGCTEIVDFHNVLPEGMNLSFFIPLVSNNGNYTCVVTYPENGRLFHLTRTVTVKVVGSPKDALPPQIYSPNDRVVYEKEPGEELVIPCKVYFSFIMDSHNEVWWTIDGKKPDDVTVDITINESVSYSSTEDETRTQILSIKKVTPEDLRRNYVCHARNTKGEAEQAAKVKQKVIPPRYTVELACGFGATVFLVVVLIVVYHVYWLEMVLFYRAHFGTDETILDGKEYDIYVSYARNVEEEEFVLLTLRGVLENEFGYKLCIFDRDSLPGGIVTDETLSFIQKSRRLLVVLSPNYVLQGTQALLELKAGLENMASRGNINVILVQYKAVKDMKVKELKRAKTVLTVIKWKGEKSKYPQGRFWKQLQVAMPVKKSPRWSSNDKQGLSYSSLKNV
Protocol: In brief, cells were harvested, counted, and plated at 50′000 cells/well in a 96-well round-bottom plate. The plate was centrifuged at 350 g for 3 minutes and the cells were resuspended in […] of FACS® buffer (PBS (1×)+2.5% FCS+2 mM EDTA+0.05% NaN₃) containing various concentrations (ranging from 20 to 0.0001 μg/ml) of either anti-mouse IL-1RAP_candidate_1 or Isotype control_2 antibodies. Stained cells were incubated for 30 minutes at 4° C., washed twice with FACS® buffer at 350 g for 3 min and resuspended in 100 μl of a monoclonal anti-mouse IgG PE-Cyanine7 secondary antibody (Biolegend, 407114) diluted 1/200 in FACS® buffer. Cells were then washed twice, and resuspended in 200 μl of FACS® buffer containing SYTOX® Green dead cell stain (THERMO FISHER […]®, S34860) and samples were acquired on a CYTOFLEX® instruments (Beckman Coulter). The cells were gated based on size on FSC vs SSC and analysed for PE-Cyanine7-geometric mean (geomean) fluorescence intensity using FLOWJO® software. Finally, relative geomean fluorescence intensity was calculated by subtracting fluorescence of anti-mouse IL-1RAP_candidate_1 per fluorescence of Isotype control_2. As depicted in FIG. 11, anti-mouse IL-1RAP_candidate_1 antibody recognizes membrane-bound IL-1RAP expressed on NIH-3T3 cell line. […] Each data point is a measurement for a given cell line. […]

B1: Anti-IL-1RAP-C3-A3 mmIgG2a LALA (antibody, V domains shown)
VH: EVQLLESGGGLVQPGGSLRLSCAASGFIFSHYGMSWVRQAPGKGLEWVSAISYDGEGTLYADSVKGRFTISRDNSKNTLYLQMNSLRAEDTAVYYCARFRYYTAFDYWGQGTLVTVSS
VL: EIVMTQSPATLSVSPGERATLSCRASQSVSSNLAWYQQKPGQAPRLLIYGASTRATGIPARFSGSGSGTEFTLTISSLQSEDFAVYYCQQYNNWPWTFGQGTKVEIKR
notes: also called anti-IL-1RAP-C3-A3 mouse IgG2a LALA
With B1 the binding result [1] was “no binding” and the “EC50 (read off the curve)” value [2] was roughly 0.3 µg/mL.
